Results: patent US20140193431A1 (KOREA RESEARCH INSTITUTE OF BIOSCIENCE AND BIOTECHNOLOGY, published 2014)

Legend:
[1] = target: T1, dog Met receptor on MDCK cells (dog, UniProt Q75ZY9 25-1382); test: FACS on MDCK cells, Alexa Fluor 488 anti-human IgG
T1 construct: whole, on cells; also called Met receptor of dog kidney MDCK (Madin-Darby Canine Kidney) cells
Method: Each of Hep3B, HeLa, A549 and HepG2, known to readily express the Met receptor, MCF7 cells known to not readily express the Met receptor, and dog kidney MDCK (Madin-Darby Canine Kidney) cells was prepared, washed twice with PBS, detached by treatment with trypsin, washed again with PBS, and then suspended in PBS (PBA buffer) containing 1% BSA protein. Then, the cells were treated with the purified with the purified B7 antibody at 1:100 at 4° C., after which the cells were washed with PBA buffer and precipitated by centrifugation at 1200 rpm for 3 minutes, and the washing and precipitation process was repeated three times. […] The cells were washed in the same manner as described above and subjected to FACS analysis (BD Cantoll Flow Cytometer) (FIG. 6). Herein, human IgG (hIgG) was used as the internal standard. FIG. 6 is a graphic diagram showing the results of FACS analysis performed to examine whether the B7 antibody did bind to Hep3B, HeLa, A549, HepG2, MCF7 and dog kidney MDCK cells.

[2] = target: c-Met (ligand of the SPR analysis, form not stated) (UniProt P08581); test: SPR (ProteOn XPR36), B7 at 2.5 to 80 nM as analyte, Langmuir 1:1 fit, grouped
[3] = target: c-Met (ligand of the SPR analysis, form not stated) (UniProt P08581); test: SPR (ProteOn XPR36), B7 antibody flowed at 2.5-80 nM, Langmuir 1:1 model; immobilised protein not named

T1 sequence (Q75ZY9 25-1382): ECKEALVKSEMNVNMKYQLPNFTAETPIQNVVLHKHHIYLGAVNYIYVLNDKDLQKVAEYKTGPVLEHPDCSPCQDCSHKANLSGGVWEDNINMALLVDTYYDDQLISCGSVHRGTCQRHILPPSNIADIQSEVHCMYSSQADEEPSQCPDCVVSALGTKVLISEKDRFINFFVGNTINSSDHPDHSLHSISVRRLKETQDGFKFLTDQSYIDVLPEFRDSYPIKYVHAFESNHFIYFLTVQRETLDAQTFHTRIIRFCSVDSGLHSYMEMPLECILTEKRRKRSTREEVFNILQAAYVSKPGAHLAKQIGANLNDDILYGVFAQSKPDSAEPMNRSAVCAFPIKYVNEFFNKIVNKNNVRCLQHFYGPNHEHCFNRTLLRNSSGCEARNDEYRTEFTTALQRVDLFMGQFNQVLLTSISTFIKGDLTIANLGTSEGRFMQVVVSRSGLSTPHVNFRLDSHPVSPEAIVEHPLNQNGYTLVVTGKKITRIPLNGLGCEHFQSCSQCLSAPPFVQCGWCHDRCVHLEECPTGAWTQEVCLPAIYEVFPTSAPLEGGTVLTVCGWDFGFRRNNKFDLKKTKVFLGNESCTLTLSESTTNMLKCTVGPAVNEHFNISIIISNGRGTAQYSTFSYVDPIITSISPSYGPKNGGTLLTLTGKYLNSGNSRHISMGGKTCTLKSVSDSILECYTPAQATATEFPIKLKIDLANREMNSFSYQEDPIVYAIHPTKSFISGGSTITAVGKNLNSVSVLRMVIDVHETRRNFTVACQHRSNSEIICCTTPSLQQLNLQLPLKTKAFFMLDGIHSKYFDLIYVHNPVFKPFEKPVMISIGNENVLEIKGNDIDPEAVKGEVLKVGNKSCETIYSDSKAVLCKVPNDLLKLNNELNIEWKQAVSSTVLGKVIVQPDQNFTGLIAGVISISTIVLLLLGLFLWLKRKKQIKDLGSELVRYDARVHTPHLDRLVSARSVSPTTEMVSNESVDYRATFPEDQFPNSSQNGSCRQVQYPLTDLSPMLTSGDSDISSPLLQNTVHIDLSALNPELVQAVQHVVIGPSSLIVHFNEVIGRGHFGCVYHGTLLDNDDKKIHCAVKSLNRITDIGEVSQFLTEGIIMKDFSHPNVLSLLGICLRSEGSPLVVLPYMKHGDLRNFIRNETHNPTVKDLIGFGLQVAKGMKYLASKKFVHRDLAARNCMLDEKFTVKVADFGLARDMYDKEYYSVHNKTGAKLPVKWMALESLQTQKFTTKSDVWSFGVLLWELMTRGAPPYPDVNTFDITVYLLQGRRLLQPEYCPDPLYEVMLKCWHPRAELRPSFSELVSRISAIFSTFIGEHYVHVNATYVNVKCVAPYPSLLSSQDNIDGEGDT

B1: B7 antibody (human anti-c-Met antibody, whole IgG) (antibody, V domains shown)
VH: QVQLQEWGAGLLKPSETLSLTCAVSGGSLSGHYWSWVRLPPGKGLEWIGEISHSGNTNYNSSLKSRASISIDTSKNEYSLNLKSVTAVDTAVYYCARFYGDYPSSYGMDVWGQGTTVTVSS
VL: QSALTQPASVSGSPGQSITISCTGTISDIGTYDFVSWYQHKPGKAPKLLIFDVNNRPSGVSSRFSGSKSDNTASLSISGFQAEDEADYYCSSYTDNRGLVLFGGGTKLTVLR
notes: Whole IgG made by cloning the B7 phage variable regions into pNATABH/pNATABL vectors and expressing them in 293E cells; also called human antibody B7; C-Met B7 antibody
B1 was tested, and the binding result [1] was “no binding (tested: 1:100)”, the kon [2] was 73000 M⁻¹ s⁻¹ and the Kd [3] was 3.3 nM.
